Earlier results, collected in publication PMC8239176.

Target: KLC1 (Homo sapiens) (UniProt Q07866)
Sequence of UniProt Q07866 (Q07866 whole entry): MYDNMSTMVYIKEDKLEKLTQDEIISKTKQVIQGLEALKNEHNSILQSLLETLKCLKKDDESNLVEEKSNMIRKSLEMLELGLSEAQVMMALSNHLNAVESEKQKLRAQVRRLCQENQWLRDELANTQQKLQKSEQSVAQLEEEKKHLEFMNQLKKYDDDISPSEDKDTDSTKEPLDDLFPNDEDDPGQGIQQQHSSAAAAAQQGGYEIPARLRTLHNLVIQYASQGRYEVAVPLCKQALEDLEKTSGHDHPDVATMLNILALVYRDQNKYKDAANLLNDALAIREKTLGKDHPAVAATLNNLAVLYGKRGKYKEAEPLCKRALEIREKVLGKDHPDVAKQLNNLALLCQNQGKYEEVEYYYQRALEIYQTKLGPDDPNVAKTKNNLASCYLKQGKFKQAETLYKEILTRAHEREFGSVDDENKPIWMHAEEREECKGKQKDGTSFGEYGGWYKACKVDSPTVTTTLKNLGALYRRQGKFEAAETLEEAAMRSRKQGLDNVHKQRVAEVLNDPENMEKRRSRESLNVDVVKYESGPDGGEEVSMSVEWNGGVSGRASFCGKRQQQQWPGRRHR

SFPQ (from UniProt P23246)
Kd: 3.8 µM
